Assay results from article PMC5551413.

Assays:
[1] = biological target: Streptococcus pyogenes quinolinate phosphoribosyltransferase (spNadC) (Streptococcus pyogenes); assay: dynamic light scattering
[2] = biological target: Streptococcus pyogenes quinolinate phosphoribosyltransferase (spNadC) (Streptococcus pyogenes); assay: SEC
[3] = biological target: spNadC Δ69A deletion mutant (Streptococcus pyogenes); assay: crystal structure
[4] = biological target: Streptococcus pyogenes NH3-dependent NAD+ synthetase (spNadE) (Streptococcus pyogenes); assay: crystal structure
[5] = biological target: Streptococcus pyogenes NH3-dependent NAD+ synthetase (spNadE) (Streptococcus pyogenes); assay: dynamic light scattering
[6] = biological target: Streptococcus pyogenes NH3-dependent NAD+ synthetase (spNadE) (Streptococcus pyogenes); assay: SEC

Streptococcus pyogenes quinolinate phosphoribosyltransferase (spNadC) (enzyme)
stoichiometry N [1]: 6 | stoichiometry N [2]: 6

spNadC Δ69A deletion mutant (enzyme)
stoichiometry N [3]: 6

Streptococcus pyogenes NH3-dependent NAD+ synthetase (spNadE) (enzyme)
stoichiometry N [4]: 2 | stoichiometry N [5]: 2 | stoichiometry N [6]: 2
